Earlier results on 2 substances are cited in article PMC2589311.

Where two headings read alike, the source gives them in different places.

Data set [1] deals with IL-1 receptor (synovial cells) (Homo sapiens) (UniProt P14778).
Data set [2] has as its target second IL-1 receptor, 68 kDa (RAJI cells) (Homo sapiens) (UniProt P27930).
The target of data set [3] is IL-1 receptor (synovial cells) (Homo sapiens) (UniProt P14778). The source holds these as a separate data set.

Sequence of UniProt P14778 (P14778 18-569): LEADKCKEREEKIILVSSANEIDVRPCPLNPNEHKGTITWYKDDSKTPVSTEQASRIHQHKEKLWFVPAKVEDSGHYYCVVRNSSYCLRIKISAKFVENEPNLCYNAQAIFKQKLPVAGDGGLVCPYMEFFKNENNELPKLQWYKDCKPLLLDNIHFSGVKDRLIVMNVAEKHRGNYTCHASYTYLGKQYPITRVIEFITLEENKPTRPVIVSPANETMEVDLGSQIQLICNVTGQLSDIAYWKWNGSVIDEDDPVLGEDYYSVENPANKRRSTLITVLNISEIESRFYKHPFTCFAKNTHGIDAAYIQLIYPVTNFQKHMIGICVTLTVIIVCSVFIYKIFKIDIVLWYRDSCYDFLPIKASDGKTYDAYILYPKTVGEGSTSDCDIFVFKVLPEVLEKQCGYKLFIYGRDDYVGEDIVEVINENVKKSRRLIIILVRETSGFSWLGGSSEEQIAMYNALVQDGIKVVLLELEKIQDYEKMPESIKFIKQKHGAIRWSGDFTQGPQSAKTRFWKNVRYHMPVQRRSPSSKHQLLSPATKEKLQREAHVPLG
Sequence of UniProt P27930 (P27930 14-398): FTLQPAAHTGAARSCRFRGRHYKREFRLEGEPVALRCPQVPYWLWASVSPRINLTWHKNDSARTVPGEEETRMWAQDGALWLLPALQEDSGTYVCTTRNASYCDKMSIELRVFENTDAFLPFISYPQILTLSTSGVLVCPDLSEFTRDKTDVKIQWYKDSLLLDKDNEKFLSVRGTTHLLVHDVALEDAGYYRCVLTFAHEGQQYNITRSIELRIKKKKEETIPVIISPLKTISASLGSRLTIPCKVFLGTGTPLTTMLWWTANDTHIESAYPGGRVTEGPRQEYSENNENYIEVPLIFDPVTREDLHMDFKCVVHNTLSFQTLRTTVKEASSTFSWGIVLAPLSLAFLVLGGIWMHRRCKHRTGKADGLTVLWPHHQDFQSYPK

Consider IL-1alpha (from UniProt P01583), for which the Kd in data set [1] is 0.066 nM.
In the case of IL-1beta (from UniProt P01584), the Kd is 2.2 nM in data set [2] and 0.004 nM in data set [3].
